Assay [1] has as its target T1, Recombinant human MMR (R&D systems) (human, UniProt P22897 19-1383).
T1 construct: Antigen of the PE-ELISA and the SPR; also called hMMR; recombinant hMMR
T1 sequence: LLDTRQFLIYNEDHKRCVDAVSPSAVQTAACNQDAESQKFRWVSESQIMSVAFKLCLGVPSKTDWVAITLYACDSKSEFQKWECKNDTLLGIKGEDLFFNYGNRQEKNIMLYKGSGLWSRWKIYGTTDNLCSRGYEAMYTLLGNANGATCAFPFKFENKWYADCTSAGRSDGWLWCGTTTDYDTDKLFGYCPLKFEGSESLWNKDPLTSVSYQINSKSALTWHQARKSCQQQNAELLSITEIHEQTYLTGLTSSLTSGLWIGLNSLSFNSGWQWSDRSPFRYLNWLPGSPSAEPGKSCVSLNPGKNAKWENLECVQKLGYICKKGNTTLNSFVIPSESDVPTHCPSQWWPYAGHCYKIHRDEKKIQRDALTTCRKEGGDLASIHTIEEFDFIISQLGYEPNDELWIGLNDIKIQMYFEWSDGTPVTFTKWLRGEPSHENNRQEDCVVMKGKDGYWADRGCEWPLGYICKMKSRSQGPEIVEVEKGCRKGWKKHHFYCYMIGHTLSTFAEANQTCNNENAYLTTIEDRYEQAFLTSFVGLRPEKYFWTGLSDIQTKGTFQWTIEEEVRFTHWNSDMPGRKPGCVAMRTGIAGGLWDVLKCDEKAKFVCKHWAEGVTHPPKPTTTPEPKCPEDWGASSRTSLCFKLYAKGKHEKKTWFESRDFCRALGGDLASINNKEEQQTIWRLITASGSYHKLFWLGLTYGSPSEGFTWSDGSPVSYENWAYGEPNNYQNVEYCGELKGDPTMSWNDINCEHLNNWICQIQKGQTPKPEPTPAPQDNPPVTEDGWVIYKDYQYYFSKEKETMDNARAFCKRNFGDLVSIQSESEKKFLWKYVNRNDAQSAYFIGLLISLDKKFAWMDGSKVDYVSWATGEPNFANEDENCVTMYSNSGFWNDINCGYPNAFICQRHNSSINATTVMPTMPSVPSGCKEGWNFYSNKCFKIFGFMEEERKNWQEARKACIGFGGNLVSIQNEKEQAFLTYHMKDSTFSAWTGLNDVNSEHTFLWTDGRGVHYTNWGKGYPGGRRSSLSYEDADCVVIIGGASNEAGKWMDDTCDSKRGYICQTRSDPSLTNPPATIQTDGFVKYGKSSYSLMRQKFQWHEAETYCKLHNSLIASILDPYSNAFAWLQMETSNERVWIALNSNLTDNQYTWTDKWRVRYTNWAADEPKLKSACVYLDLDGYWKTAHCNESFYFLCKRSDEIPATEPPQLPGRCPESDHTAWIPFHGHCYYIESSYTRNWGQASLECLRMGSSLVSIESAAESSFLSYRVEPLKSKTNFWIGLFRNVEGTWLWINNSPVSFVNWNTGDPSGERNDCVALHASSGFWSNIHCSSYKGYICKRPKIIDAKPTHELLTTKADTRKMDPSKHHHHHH
In words: PE-ELISA, periplasmic extract on coated human MMR, anti-HA detection.

In assay [2] the target is T2, Mouse macrophage mannose receptor (MMR) expressed on tumor-associated macrophages of 3LL-R tumors (mouse, UniProt Q61830 20-1456).
T2 construct: Endogenous receptor on ex vivo isolated CD11b+ Ly6G- TAMs (flow cytometry) and in mouse organs (biodistribution); also called mouse MMR; mMMR
T2 sequence: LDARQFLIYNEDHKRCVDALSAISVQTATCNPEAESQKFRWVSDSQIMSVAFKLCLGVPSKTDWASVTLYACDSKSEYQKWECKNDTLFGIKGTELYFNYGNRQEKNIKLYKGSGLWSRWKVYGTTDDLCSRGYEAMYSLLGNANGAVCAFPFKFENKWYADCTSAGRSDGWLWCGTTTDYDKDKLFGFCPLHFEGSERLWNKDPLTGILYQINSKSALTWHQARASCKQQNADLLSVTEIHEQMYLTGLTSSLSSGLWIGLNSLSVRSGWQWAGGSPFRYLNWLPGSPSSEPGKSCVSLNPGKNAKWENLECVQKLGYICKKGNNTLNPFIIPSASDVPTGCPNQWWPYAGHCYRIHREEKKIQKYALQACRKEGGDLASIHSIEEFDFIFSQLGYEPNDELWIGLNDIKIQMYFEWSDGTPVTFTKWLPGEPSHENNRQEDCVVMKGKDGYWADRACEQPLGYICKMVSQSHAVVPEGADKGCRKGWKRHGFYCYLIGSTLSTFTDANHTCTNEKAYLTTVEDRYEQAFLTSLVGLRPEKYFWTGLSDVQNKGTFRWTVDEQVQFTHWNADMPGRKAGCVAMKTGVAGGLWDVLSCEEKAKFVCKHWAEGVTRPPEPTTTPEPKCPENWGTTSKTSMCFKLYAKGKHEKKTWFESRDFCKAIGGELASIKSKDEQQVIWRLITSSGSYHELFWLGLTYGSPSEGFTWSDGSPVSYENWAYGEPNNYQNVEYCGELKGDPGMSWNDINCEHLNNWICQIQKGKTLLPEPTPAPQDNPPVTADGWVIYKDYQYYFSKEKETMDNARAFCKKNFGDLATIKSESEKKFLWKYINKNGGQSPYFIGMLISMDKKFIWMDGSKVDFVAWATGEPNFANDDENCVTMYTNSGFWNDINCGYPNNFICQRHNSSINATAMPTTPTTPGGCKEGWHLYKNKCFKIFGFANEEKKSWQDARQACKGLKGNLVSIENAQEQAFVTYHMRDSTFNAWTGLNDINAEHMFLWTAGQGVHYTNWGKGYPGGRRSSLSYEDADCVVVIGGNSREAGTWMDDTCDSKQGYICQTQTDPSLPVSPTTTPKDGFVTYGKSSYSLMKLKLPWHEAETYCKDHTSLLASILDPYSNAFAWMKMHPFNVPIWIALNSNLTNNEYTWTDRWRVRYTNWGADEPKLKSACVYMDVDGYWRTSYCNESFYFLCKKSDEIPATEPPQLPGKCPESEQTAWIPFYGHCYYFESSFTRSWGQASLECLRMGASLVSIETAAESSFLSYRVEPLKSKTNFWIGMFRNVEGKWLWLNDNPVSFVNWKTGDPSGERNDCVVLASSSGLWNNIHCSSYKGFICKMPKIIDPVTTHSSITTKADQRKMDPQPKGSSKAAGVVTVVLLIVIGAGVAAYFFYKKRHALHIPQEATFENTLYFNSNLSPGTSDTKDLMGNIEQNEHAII
In words: flow cytometry on CD11b+ Ly6G- TAMs of 3LL-R tumors gated on MHCII, HA-tagged Nb detected with Alexa Fluor 488 anti-HA. On the procedure:
FIG. 6: MMR-specific Nbs bind to mouse MMR expressed on ex vivo isolated macrophages. 3LL-R tumors were induced by injecting 3×10⁶ cancer cells subcutaneously in C57Bl/6 mice. After 15 days of tumor growth, the tumors were isolated and single cell suspensions were prepared to be analyzed by flow cytometry. The CD11b+Ly6G tumor-associated macrophages (TAM) were further gated on MHCII expression. The histograms depict MMR expression as defined by Nb binding on MHCII^low and MHCII^high TAMs. Shaded histograms depict binding of the negative control Nb BCII10.
For examining specific binding of the anti-MMR sdAbs to mouse MMR, 3LL-R tumors were induced by injecting 3 E6 cancer cells subcutaneously in C57Bl/6 mice. After 15 days of tumor growth, the tumors were isolated, chopped and incubated for 25 minutes (37° C.) with 10 U/ml Collagenase type I, 400 U/ml Collagenase type IV, and 30 U/ml DNAseI (Worthington). Density gradients (Axis-Shield) were used to remove tissue debris and dead cells. sdAbs were added at 10 μg/ml to 1 E6 cells per tube. […] Binding profiles of anti-MMR sdAbs were recorded.

Consider two molecules from patent US20150093336A1 (VIB VZW, published 2015).

B1: NbhMMRm4.83 (VHH)
VHH: QVQLQESGGGLVQPGGSLRLSCAASGPGFKLDYYAIAWFRQAPGKEREGVSCIGGSGSGLTTYVENSVKDRFTISRDNAQNTVYLHMNSLKPEDTGIYYCAADTYYYCSKRVWRNDYGSWGQGTQVTVSS
notes: Only tested as periplasmic extract in PE-ELISA; clone carries C-terminal HA and 6xHis tag
As for B1, the binding result in assay [1] is recorded as “binds”.

B2: anti-mouse MMR sdAb clone 1 (VHH)
VHH: QVQLQESGGGLVQPGGSLRLSCAASGNIFSINAIGWYRQAPGKQRELVATITLSGSTNYADSVKGRFSISRDNAKNTVYLQMNSLKPEDTAVYYCNANTYSDSDVYGYWGQGTQVTVSS
notes: also called anti-mMMR Nb clone 1; anti-mouse MMR clone 1
As for B2, the binding result in assay [2] is recorded as “binds”.
